Conditions in all cases: one partner purified
In experiment [1] the target is T1, endothelin A receptor (ETaR) (Homo sapiens (assumed), UniProt P25101).
T1 construct: endothelin A receptor (ETaR), a GPCR; plasmid and cells were gifts from Gmax Biopharm LLC; also called GPCR; ETaR-expressing CHO cells; source: CHO cells stably expressing and displaying ETaR (provided by Gmax Biopharm LLC); on cells, and in vesicles prepared from them
Briefly: flow cytometry on cells; purified scFv-His at 1 to 316 nM on ETaR-expressing CHO cells, 1 h at 4 °C; FITC-conjugated anti-His; Kd from the dose-response curve (GraphPad PRISM 5.0). For orientation: Flow cytometry measures light scatter and fluorescence of single cells or particles in a stream.

Experiment [2] addresses T1, endothelin A receptor (ETaR). Briefly: flow cytometry on cells; competition: unlabelled scFv at 0.01 to 316 nM against FITC-labeled wild-type anti-GPCR at L = 150 nM on ETaR-expressing CHO cells, 1 h at 4 °C; Ki = IC50/(1 + L/Kd).
For experiment [3] the target is unchanged. Briefly: flow cytometry on cells; competition of unlabelled full-length antibodies, obtained similarly as for scFv; L = 13 nM; Ki = IC50/(1 + L/Kd).
Experiment [4] has the same target. The description is as above. This is another data set of the same source.
For experiment [5] the target is unchanged. Briefly: flow cytometry on cells; purified full-length antibodies titrated on ETaR-expressing CHO cells as for scFv; PE-conjugated anti-IgG; Kd from the dose-response curve.
In experiment [6] the target is T2, ETaR-GFP (UniProt P25101).
T2 construct: endothelin A receptor (ETaR) with GFP fused to its C-terminus (in cytosol); also called ETaR cells; ETaR-GFP cells; source: CHO cells stably expressing ETaR-GFP (provided by Gmax Biopharm LLC; clone S-33 for vesicles); on cells, and in vesicles prepared from them; not shown: GFP, C-terminal, kept
The experiment is described as follows: flow cytometry on cells; cells expressing ETaR-GFP incubated with purified scFv-His for 30 min, then anti-his-PE antibody (Fig. 4b).

T1 sequence (P25101 21-427): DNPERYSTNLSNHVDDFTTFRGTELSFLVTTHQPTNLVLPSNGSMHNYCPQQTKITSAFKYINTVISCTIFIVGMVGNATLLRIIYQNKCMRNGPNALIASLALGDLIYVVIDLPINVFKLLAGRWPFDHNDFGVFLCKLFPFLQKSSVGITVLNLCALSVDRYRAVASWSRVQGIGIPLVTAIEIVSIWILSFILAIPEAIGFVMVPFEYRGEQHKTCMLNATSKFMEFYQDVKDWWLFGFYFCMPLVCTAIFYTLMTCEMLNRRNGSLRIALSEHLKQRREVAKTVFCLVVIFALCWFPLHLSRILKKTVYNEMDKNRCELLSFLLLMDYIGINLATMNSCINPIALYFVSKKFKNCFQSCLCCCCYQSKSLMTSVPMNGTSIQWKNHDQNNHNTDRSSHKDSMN
T2 sequence (P25101 21-427): as above

B1: anti-GPCR (ETaR) antibody 80H4, scFv-His, wild type (scFv, V domains shown)
VH: EVQLLESGGGLVQPGGSLRLSCAASGFTFSSYGMSWVRQAPGKGLEWVSAISTNGATAYYADSVKGRFTISRDNSKNTLYLQMNSLRAEDTAVYYCATEKGAMGYWGQGTLVTVSS
VL: DIVMTQTPLSLSVTPGQPASISCRSSQNIVHSTGNTYLEWYLQKPGQSPQLLIYKVSNRFSGVPDRFSGSGSGTDFTLKISRVEAEDVGVYYCFQGSHFPFTFGQGTKVEIK
notes: heavy-chain variable region of 80H4; (G4S)3 linker; light-chain variable region of 80H4; Order HV-(G4S)3-LV; made with a signal peptide (SP); also called WT; anti-GPCR-scFv-His; source: Expi293F, transfected, purified from supernatant (Ni-NTA); not shown: His tag, C-terminal, kept
B1 came in with a Kd in experiment [1] of 169 nM. Besides, in experiment [2], the IC50 was determined as 568 nM and the Ki came to 300 nM.

B2: anti-GPCR (ETaR) antibody 80H4, scFv-His, mutant N28Y (scFv, V domains shown)
VH: EVQLLESGGGLVQPGGSLRLSCAASGFTFSSYGMSWVRQAPGKGLEWVSAISTNGATAYYADSVKGRFTISRDNSKNTLYLQMNSLRAEDTAVYYCATEKGAMGYWGQGTLVTVSS
VL: DIVMTQTPLSLSVTPGQPASISCRSSQYIVHSTGNTYLEWYLQKPGQSPQLLIYKVSNRFSGVPDRFSGSGSGTDFTLKISRVEAEDVGVYYCFQGSHFPFTFGQGTKVEIK
notes: heavy-chain variable region as in m3; (G4S)3 linker; light-chain variable region as in m3; source: Expi293F, transfected, purified from supernatant (Ni-NTA); not shown: His tag, C-terminal, kept
Consider B2, for which, in experiment [1], the Kd was determined as 83.5 nM. In experiment [2], the IC50 worked out at 210 nM and the Ki stood at 75.1 nM.

B3: anti-GPCR (ETaR) antibody 80H4, full-length, mutant T113A-V64M-N28Y (antibody, V domains shown)
VH: EVQLLESGGGLVQPGGSLRLSCAASGFTFSSYGMSWVRQAPGKGLEWVSAISTNGATAYYADSMKGRFTISRDNSKNTLYLQMNSLRAEDTAVYYCATEKGAMGYWGQGTLVAVSS
VL: DIVMTQTPLSLSVTPGQPASISCRSSQYIVHSTGNTYLEWYLQKPGQSPQLLIYKVSNRFSGVPDRFSGSGSGTDFTLKISRVEAEDVGVYYCFQGSHFPFTFGQGTKVEIK
notes: heavy-chain variable region as the heavy chain of m13; heavy-chain constant region as in m13; light-chain variable region as the light chain of m13; light-chain constant region as in m13; also called T113A-V64M-N28Y mutant full-length antibody; source: Expi293F, heavy and light chains co-expressed, purified from supernatant (Protein A); copies: 2 + 2
For B3, the Ki in experiment [3] turned out to be 15.6 nM.

B4: anti-GPCR (ETaR) antibody 80H4, full-length, wild type (antibody, V domains shown)
VH: EVQLLESGGGLVQPGGSLRLSCAASGFTFSSYGMSWVRQAPGKGLEWVSAISTNGATAYYADSVKGRFTISRDNSKNTLYLQMNSLRAEDTAVYYCATEKGAMGYWGQGTLVTVSS
VL: DIVMTQTPLSLSVTPGQPASISCRSSQNIVHSTGNTYLEWYLQKPGQSPQLLIYKVSNRFSGVPDRFSGSGSGTDFTLKISRVEAEDVGVYYCFQGSHFPFTFGQGTKVEIK
notes: heavy-chain variable region of 80H4; heavy-chain constant region (HC); labelled by anti-human IgG; light-chain variable region of 80H4; light-chain constant region (LC); also called WT; full-length wild-type antibody; source: Expi293F, heavy and light chains co-expressed, purified from supernatant (Protein A); copies: 2 + 2
On to B4, for which, in experiment [4], the IC50 was found to be 50.1 nM and the Ki was 31.3 nM. The Kd in experiment [5] is 21.5 nM.

B5: anti-GPCR (ETaR) antibody 80H4, scFv-His, mutant T113A-R38Q (scFv, V domains shown)
VH: EVQLLESGGGLVQPGGSLRLSCAASGFTFSSYGMSWVQQAPGKGLEWVSAISTNGATAYYADSVKGRFTISRDNSKNTLYLQMNSLRAEDTAVYYCATEKGAMGYWGQGTLVAVSS
VL: DIVMTQTPLSLSVTPGQPASISCRSSQNIVHSTGNTYLEWYLQKPGQSPQLLIYKVSNRFSGVPDRFSGSGSGTDFTLKISRVEAEDVGVYYCFQGSHFPFTFGQGTKVEIK
notes: heavy-chain variable region as in m3; (G4S)3 linker; light-chain variable region as in m3; also called T113A-R38Q scFv-His; source: Expi293F, transfected, purified from supernatant (Ni-NTA); not shown: His tag, C-terminal, kept
Regarding B5, in experiment [6], the binding result is listed as “binds”.

B6: anti-GPCR (ETaR) antibody 80H4, full-length, mutant S115N-S30R (antibody, V domains shown)
VH: EVQLLESGGGLVQPGGSLRLSCAASGFTFRSYGMSWVRQAPGKGLEWVSAISTNGATAYYADSVKGRFTISRDNSKNTLYLQMNSLRAEDTAVYYCATEKGAMGYWGQGTLVTVNS
VL: DIVMTQTPLSLSVTPGQPASISCRSSQNIVHSTGNTYLEWYLQKPGQSPQLLIYKVSNRFSGVPDRFSGSGSGTDFTLKISRVEAEDVGVYYCFQGSHFPFTFGQGTKVEIK
notes: heavy-chain variable region as the heavy chain of m13; heavy-chain constant region as in m13; light-chain variable region as the light chain of m13; light-chain constant region as in m13; source: Expi293F, heavy and light chains co-expressed, purified from supernatant (Protein A); copies: 2 + 2
In the case of B6, in experiment [4], the IC50 was 22.4 nM and the Ki came to 10.2 nM. The same molecule registered a Kd in experiment [5] of 10.8 nM.

B7: anti-GPCR (ETaR) antibody 80H4, scFv-His, mutant T113A-V64M-N28Y (scFv, V domains shown)
VH: EVQLLESGGGLVQPGGSLRLSCAASGFTFSSYGMSWVRQAPGKGLEWVSAISTNGATAYYADSMKGRFTISRDNSKNTLYLQMNSLRAEDTAVYYCATEKGAMGYWGQGTLVAVSS
VL: DIVMTQTPLSLSVTPGQPASISCRSSQYIVHSTGNTYLEWYLQKPGQSPQLLIYKVSNRFSGVPDRFSGSGSGTDFTLKISRVEAEDVGVYYCFQGSHFPFTFGQGTKVEIK
notes: heavy-chain variable region as in m3; (G4S)3 linker; light-chain variable region as in m3; Combination of N28Y and T113A-V64M made by the authors; source: Expi293F, transfected, purified from supernatant (Ni-NTA); not shown: His tag, C-terminal, kept
Take B7: the Kd in experiment [1] amounted to 22.4 nM. In experiment [2], the IC50 is 170 nM and the Ki is 22.1 nM.

Broadly, the Kd is the constant that tells how readily two partners part at equilibrium. Low readings indicate higher affinity, high ones lower affinity. The IC50 is the concentration at which inhibition is half-maximal. In general, Ki refers to a dissociation constant, usually derived from enzyme kinetics or from competition with a known ligand.

(Values after paper PMC6719327 (Applied Microbiology and Biotechnology, 2019).)
